Results: US9029505B2, “Modified vasoactive intestinal peptides” (Phasebio Pharmaceuticals, Inc., priority 2009, dated 2015)
No end group written: not given here. ELP1‑120 = 120 ELP1 units (VPGXG) fused at the C-terminus

Legend:
[1] = target: T1, human Vasoactive Intestinal Peptide Receptor 2 (VPAC2) (Homo sapiens, UniProt P41587); experiment: cell-based cAMP bioassay in CHO cells expressing VPAC2; conditions: for activity compared with native VIP protein for VPAC2 receptor (cAMP produced): CHO cells expressing VPAC2, 30 minute incubation, FIG. 8, PB1047 DPP-IV treated before addition
T1 construct: expressed in transfected cells; host or cells: Chinese Hamster Ovary (CHO) cells
T1 sequence (P41587 24-438): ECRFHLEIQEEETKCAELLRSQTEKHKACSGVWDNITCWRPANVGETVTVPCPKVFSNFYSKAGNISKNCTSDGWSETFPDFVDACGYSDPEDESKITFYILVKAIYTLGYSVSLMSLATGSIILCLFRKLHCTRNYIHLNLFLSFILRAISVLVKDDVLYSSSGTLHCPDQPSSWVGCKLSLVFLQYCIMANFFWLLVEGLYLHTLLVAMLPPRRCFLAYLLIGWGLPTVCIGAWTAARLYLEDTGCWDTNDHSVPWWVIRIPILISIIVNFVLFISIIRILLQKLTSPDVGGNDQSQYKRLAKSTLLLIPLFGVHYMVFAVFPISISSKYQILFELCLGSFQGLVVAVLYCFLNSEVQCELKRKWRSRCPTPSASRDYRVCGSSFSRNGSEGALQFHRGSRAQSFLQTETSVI
Source text: (§1) To measure the in vitro biological activity and potency of VIP or VIP-ELP fusion proteins, a cell-based bioassay was used. The assay measures the increase in intracellular cyclic adenosine monophosphate (cAMP) concentration in response to treatment with VIP or VIP-ELP fusion proteins in Chinese Hamster Ovary (CHO) cells that have been engineered to express either the human Vasoactive Intestinal Peptide Receptor 2 (VPAC2) or the human Vasoactive Intestinal Peptide Receptor 1 (VPAC1). […] Since the amount of cAMP accumulation in cells after receptor-mediated ligand binding and activation is directly proportional to the amount of intact peptide or fusion protein present, the assay can be used to determine bioactivity and relative potency.
In this example, the activity of VIP-ELP fusion proteins PB1046 and PB1047 was tested. Construct PB1046 contains VIP with a Met at the N-terminus and construct PB1047 contains VIP with Ala-Ala at its N-terminus. Both constructs have ELP (1-120) at their C-terminus. In the first experiment, the activity of the constructs was tested using CHO cells expressing the VIP receptor VPAC2. After 30 minute incubations of various concentrations of the fusion proteins with the cell, the cells were lysed and the amount of cAMP produced was measured using a commercial kit. PB1047 was DPP-IV treated prior to the addition to the cells.
FIG. 13 illustrates the activity of PB1120 for the VPAC2 receptor. Like the results seen for the VPAC1 receptor, PB1120 show slightly less activity (˜1.5 fold less) than the native VIP peptide for VPAC2. However, in contrast to the results seen with VPAC1. PB1046 was equipotent for VPAC2 as compared to the native peptide.

[2] = target: T2, human Vasoactive Intestinal Peptide Receptor 1 (VPAC1) (Homo sapiens, UniProt P32241); experiment: cell-based cAMP bioassay in CHO cells expressing VPAC1; conditions: for activity compared with native VIP protein for VPAC1 receptor (cAMP produced): CHO cells expressing VPAC1, 30 minute incubation, FIG. 9, PB1047 DPP-IV treated before addition; for fold less active than the native VIP peptide on the VPAC1 receptor: FIG. 12
T2 construct: expressed in transfected cells; host or cells: Chinese Hamster Ovary (CHO) cells
T2 sequence (P32241 31-457): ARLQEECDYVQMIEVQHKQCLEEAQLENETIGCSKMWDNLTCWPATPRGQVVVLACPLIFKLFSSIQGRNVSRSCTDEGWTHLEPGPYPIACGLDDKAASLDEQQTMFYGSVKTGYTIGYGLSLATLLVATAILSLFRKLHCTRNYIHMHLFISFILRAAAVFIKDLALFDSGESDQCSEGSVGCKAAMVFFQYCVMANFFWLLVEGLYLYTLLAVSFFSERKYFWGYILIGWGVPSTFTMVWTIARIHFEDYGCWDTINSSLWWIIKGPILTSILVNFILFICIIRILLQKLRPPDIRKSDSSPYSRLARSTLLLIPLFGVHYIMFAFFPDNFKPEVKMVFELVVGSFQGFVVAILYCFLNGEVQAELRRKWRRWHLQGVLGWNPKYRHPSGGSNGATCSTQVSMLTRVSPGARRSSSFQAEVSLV
Source text: as §1
The activity of PB1046 and PB1047 was also tested using CHO cells expressing the VIP receptor VPAC1. After 30 minute incubations of various concentrations of the fusion proteins with CHO cells, cells were lysed and the amount of cAMP produced was measured using a commercial kit. PB1047 was DPP-IV treated prior to the addition to the cells.
The activity of the PB1120 fusion peptide was tested in vitro. The activity was tested using an assay utilizing CHO cells expressing VIP receptor (VPAC1) as described above in Example 3.

[3] = test system: Spontaneously hypertensive rats; experiment: blood pressure effect in spontaneously hypertensive rats; assay type: in vivo, rat; conditions: 10 mg/kg subcutaneous
Protocol: The activity of the modified VIP-ELP fusion protein PB1047 was also tested in vivo. Specifically, effects of VIP-ELP fusion protein on blood pressure were tested. Spontaneously hypertensive rats were treated subcutaneous with PB1047 (10 mg/kg) or buffer control and their blood pressures were measured at several points after administration of the fusion protein. Five animals were used for each group and the graphs show the average and the standard deviation.

DPP IV = DPP IV (Homo sapiens, UniProt P27487); experiment: DPP IV treatment of the fusion protein; assay type: biochemical; conditions: removal of both AA and HS from the N-terminus
Source text: Plasmid pPB1064 was therefore constructed, where the N-terminus was changed to MAAHG, SEQ ID NO: 45, instead of MAAHS, SEQ ID NO: 46, because HG is more resistant to DPP IV than HS.

[4] = Domschke 1978, Burhol 1978; cited from earlier work
[5] = pharmacokinetic profile in monkeys after single SC injection; assay type: in vivo, monkey; conditions: single SC 3 mg/kg, to day 4
Protocol: In addition to the biological potency assays described above, the pharmacokinetic profile of the VIP-ELP fusion protein PB1120 was also examined. Monkeys were given single subcutaneous (SC) injections (dosed at 3 mg/kg) of PB1120 and plasma drug concentrations were measured daily over the course of one week. Three animals were used and the graphs show the average and the standard deviation.

rats = experiment: effects on systolic, diastolic and mean arterial blood pressure in rats; assay type: in vivo, rat; conditions: 9 hrs post-injection
Protocol: To measure the effects of the modified VIP-ELP fusion protein PB1120 on systolic, diastolic, and mean arterial blood pressure, rats were given single, subcutaneous injections of 0.1 mg/kg, 1 mg/kg, or 5 mg/kg of PB1120 and evaluated over 3-hr intervals. FIGS. 15A, 15B, and 15C show the average change in systolic, diastolic, and mean arterial pressure, respectively.

Chain of DPP IV (P27487 whole entry, species assumed, the tested form may be a part): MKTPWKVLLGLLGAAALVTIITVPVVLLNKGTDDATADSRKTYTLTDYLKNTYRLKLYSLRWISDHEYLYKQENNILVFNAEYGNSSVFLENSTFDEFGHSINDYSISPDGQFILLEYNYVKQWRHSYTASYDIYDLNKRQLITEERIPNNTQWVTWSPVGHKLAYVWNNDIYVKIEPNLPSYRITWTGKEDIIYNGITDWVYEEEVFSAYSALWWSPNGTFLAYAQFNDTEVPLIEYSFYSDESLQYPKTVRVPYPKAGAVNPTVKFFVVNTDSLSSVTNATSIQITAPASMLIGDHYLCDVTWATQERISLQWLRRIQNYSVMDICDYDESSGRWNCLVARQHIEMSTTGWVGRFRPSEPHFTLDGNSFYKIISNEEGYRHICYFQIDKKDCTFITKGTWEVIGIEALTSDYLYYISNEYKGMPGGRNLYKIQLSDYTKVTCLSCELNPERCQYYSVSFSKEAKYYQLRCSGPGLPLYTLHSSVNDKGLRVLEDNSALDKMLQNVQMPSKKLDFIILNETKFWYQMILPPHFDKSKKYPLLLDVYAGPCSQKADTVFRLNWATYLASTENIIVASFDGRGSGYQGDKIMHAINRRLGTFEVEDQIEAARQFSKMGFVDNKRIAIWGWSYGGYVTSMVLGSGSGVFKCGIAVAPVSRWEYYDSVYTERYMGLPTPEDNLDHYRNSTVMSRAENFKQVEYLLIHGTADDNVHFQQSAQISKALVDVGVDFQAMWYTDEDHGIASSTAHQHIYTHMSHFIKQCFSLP

PB1046: VIP-ELP fusion protein with Met at the N-terminus and ELP1-120 at the C-terminus (SEQ ID NO. 17; FIG. 1 SEQ ID NO: 14) (MHSDAVFTDNYTRLRKQMAVKKYLNSILN-{ELP1‑120}; also: recombinant VIP-ELP fusion)
activity compared with native VIP protein for VPAC2 receptor (cAMP produced) [1]: somewhat more active than native VIP protein | potency for VPAC2 compared to the native peptide ([1]; FIG. 13): equipotent | receptor selectivity VPAC2 over VPAC1 ([1]; comparison of FIG. 8 and FIG. 9): selectively activates VPAC2 receptor over VPAC1 receptor | activity compared with native VIP protein for VPAC1 receptor (cAMP produced) [2]: much less active than native VIP protein | fold less active than the native VIP peptide on the VPAC1 receptor [2]: approximately 11 fold

PB1047: VIP-ELP fusion with tripeptide MAA encoded at N-terminus (Ala-Ala after Met removal), ELP1-120 at C-terminus (SEQ ID 18) (MAAHSDAVFTDNYTRLRKQMAVKKYLNSILN-{ELP1‑120}; also: recombinant fusion with ELP1-120 at C-terminus)
activity compared with native VIP protein for VPAC2 receptor (cAMP produced) [1]: less active | activity compared with native VIP protein for VPAC1 receptor (cAMP produced) [2]: about the same as it was in the test for VPAC2 receptor | duration of blood pressure reduction post administration ([3]; systolic and diastolic): at least 12 hours | diastolic blood pressure ([3]; vs buffer control, FIG. 10): significantly reduced | systolic blood pressure ([3]; vs buffer control, FIG. 10): significantly reduced | effect of DPP IV treatment on the peptide (DPP IV): inactivation of the peptide

Vasoactive intestinal peptide [VIP]
half-life in blood [4]: less than 2 minutes

B1: PB1120: VIP-ELP1-120 fusion peptide encoded by pPB1120 (protein)
chain: HSDAVFTDNYTRLRKQMAVKKYLNSILNVPGVGVPGVGVPGGGVPGAGVPGVGVPGVGVPGVGVPGGGVPGAGVPGGGVPGVGVPGVGVPGGGVPGAGVPGVGVPGVGVPGVGVPGGGVPGAGVPGGGVPGVGVPGVGVPGGGVPGAGVPGVGVPGVGVPGVGVPGGGVPGAGVPGGGVPGVGVPGVGVPGGGVPGAGVPGVGVPGVGVPGVGVPGGGVPGAGVPGGGVPGVGVPGVGVPGGGVPGAGVPGVGVPGVGVPGVGVPGGGVPGAGVPGGGVPGVGVPGVGVPGGGVPGAGVPGVGVPGVGVPGVGVPGGGVPGAGVPGGGVPGVGVPGVGVPGGGVPGAGVPGVGVPGVGVPGVGVPGGGVPGAGVPGGGVPGVGVPGVGVPGGGVPGAGVPGVGVPGVGVPGVGVPGGGVPGAGVPGGGVPGVGVPGVGVPGGGVPGAGVPGVGVPGVGVPGVGVPGGGVPGAGVPGGGVPGVGVPGVGVPGGGVPGAGVPGVGVPGVGVPGVGVPGGGVPGAGVPGGGVPGVGVPGVGVPGGGVPGAGVPGVGVPGVGVPGVGVPGGGVPGAGVPGGGVPGVGVPGVGVPGGGVPGAGVPGVGVPGVGVPGVGVPGGGVPGAGVPGGGVPGWP
modifications: VIP ELP1-120
notes: VIP-ELP1-120 fusion peptide encoded by pPB1120
fold less activity than the native VIP peptide for VPAC2 ([1]; FIG. 13): ~1.5 fold | fold less active than the native VIP peptide on the VPAC1 receptor [2]: approximately 1.4 fold | portion of initial dose remaining in the circulation [5]: More than half | diastolic pressure (rats; 1 mg/kg SC): significant reductions | mean arterial pressure (rats; 1 mg/kg SC): significant reductions | systolic pressure (rats; 1 mg/kg SC): significant reductions | diastolic pressure (rats; 5 mg/kg SC): significant reductions | mean arterial pressure (rats; 5 mg/kg SC): significant reductions | systolic pressure (rats; 5 mg/kg SC): significant reductions
